Results from doi:10.1101/2024.11.11.622902.
Where “and” joins values, the source holds several entries; their conditions need not be identical. Equal values may be shown once. Read-outs that look alike come from different tables or passages of the source. One block for each substance: values may come before it.

Tests used:
[1] = target: S-nitrosylated human GAPDH (hGAPDH treated with S-nitrosocysteine, CysNO) (human); assay: native MS
[2] = target: human glyceraldehyde-3-phosphate dehydrogenase (hGAPDH), wild type (human); assay: native MS
[3] = target: human glyceraldehyde-3-phosphate dehydrogenase (hGAPDH), wild type (human); assay: SEC
[4] = target: human glyceraldehyde-3-phosphate dehydrogenase (hGAPDH), wild type (human); assay: SEC; remark: listed apart in the source
[5] = target: human glyceraldehyde-3-phosphate dehydrogenase (hGAPDH), wild type (human); assay: native MS; remark: listed apart in the source
[6] = target: porcine glyceraldehyde-3-phosphate dehydrogenase (pGAPDH), wild type (pig (Sus scrofa)); assay: SEC
[7] = target: porcine glyceraldehyde-3-phosphate dehydrogenase (pGAPDH), wild type (pig (Sus scrofa)); assay: SEC; remark: listed apart in the source
[8] = target: porcine glyceraldehyde-3-phosphate dehydrogenase (pGAPDH), wild type (pig (Sus scrofa)); assay: SEC; remark: listed apart in the source
[9] = target: porcine glyceraldehyde-3-phosphate dehydrogenase (pGAPDH), wild type (pig (Sus scrofa)); assay: SEC; remark: listed apart in the source
[10] = target: porcine glyceraldehyde-3-phosphate dehydrogenase (pGAPDH), wild type (pig (Sus scrofa)); assay: SEC; remark: listed apart in the source
[11] = target: porcine glyceraldehyde-3-phosphate dehydrogenase (pGAPDH), wild type (pig (Sus scrofa)); assay: SEC; remark: listed apart in the source

stoichiometry N [1]: 4
Substance: S-nitrosylated human GAPDH (hGAPDH treated with S-nitrosocysteine, CysNO) (enzyme)

stoichiometry N [2]: 4
stoichiometry N [3]: 4
stoichiometry N [4]: 4
stoichiometry N [5]: 4
Substance: human glyceraldehyde-3-phosphate dehydrogenase (hGAPDH), wild type (enzyme)

stoichiometry N [6]: 4
stoichiometry N [7]: 2
stoichiometry N [8]: 4
stoichiometry N [9]: 4
stoichiometry N [10]: 4
stoichiometry N [11]: 4 and 2
Substance: porcine glyceraldehyde-3-phosphate dehydrogenase (pGAPDH), wild type (enzyme)
